The values that follow come from US20200199241A1 (Chugai, published 2020).

The target in assay [1] is T1, FcγRIIb (human, UniProt P31994 43-217, limits assumed).
T1 construct: SPR analyte; also called FcγIIB; CD32
T1 sequence: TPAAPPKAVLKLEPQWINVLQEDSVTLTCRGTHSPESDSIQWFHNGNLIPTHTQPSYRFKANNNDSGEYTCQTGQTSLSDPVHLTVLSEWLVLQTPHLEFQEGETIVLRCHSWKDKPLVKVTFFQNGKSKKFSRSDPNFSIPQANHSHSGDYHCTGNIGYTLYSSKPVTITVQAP
The assay is described as follows: SPR (Biacore), antibody captured, FcγR analyte. For orientation: Surface plasmon resonance follows binding to a sensor surface in real time, without labels.

The target in assay [2] is T2, FcγRIIa type H (human, UniProt P12318 36-217).
T2 construct: SPR analyte; also called FcγRIIaH
T2 sequence: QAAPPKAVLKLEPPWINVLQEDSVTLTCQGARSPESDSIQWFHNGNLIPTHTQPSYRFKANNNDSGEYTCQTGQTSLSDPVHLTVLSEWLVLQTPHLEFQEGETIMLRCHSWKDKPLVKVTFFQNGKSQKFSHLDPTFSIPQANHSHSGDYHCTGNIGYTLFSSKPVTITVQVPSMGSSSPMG
The assay can be described thus: SPR (Biacore), antibody captured, FcγR analyte.

The target in assay [3] is T3, FcγRIIa type R (human, UniProt P12318 36-217).
T3 construct: SPR analyte; also called FcγRIIaR; FcγRIIa(R)
T3 chain: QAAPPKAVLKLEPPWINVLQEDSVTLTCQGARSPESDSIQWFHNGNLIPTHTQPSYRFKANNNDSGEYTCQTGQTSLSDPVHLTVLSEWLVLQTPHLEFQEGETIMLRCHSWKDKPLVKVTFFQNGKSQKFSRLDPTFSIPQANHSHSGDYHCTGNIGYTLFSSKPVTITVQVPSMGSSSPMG
The assay is described as follows: SPR (Biacore), antibody captured, FcγR analyte.

Assay [4] addresses T4, FcγRIIIa type V (human, UniProt P08637 17-208, limits assumed).
T4 construct: SPR analyte; allotype V158 was used here; also called FcγRIIIaV; FcγRIIIa(V)
The assay can be described thus: SPR (Biacore), antibody captured, FcγR analyte.

Assay [5] has as its target T5, FcγRIa (human, UniProt P12314 16-292, limits assumed).
T5 construct: SPR analyte; also called CD64
The assay can be described thus: SPR (Biacore), antibody captured, FcγR analyte.

Assay [6] deals with T1, FcγRIIb. The assay is described as follows: ratio of SPR KDs; reference IL6R-B3/IL6R-L.
Source text: Furthermore, KD(IIaR)/KD(IIb) and KD(IIaH)/KD(IIb) in the table respectively represent the value obtained by dividing the KD value of each variant for FcγRIIaR by the KD value of each variant for FcγRIIb, and the value obtained by dividing the KD value of each variant for FcγRIIaH by the KD value of each variant for FcγRIIb. KD(IIb) of the parent polypeptide/KD(IIb) of the altered polypeptide refers to the value obtained by dividing the KD value of the parent polypeptide for FcγRIIb by the KD value of each variant for FcγRIIb.

T4 sequence (P08637 other isoform, or with tags, fused parts or gaps limits assumed): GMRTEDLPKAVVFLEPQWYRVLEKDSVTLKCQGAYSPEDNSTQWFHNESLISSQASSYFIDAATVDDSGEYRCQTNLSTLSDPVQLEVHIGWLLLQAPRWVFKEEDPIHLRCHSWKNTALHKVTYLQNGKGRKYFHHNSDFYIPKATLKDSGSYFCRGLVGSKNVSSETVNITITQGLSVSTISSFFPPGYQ
T5 sequence (P12314 16-292 limits assumed): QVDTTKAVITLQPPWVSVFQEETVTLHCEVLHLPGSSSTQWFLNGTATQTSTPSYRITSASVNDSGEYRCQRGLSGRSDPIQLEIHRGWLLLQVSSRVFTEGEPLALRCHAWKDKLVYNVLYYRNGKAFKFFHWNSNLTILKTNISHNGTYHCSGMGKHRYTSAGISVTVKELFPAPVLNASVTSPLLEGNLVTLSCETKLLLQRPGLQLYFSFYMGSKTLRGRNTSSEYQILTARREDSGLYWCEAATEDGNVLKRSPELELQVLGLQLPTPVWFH

B1: IL6R-BP084/IL6R-L (antibody, human IgG1)
heavy: QVQLQESGPGLVKPSETLSLTCAVSGHSISHDHAWSWVRQPPGEGLEWIGFISYSGITNYNPSLQGRVTISRDNSKNTLYLQMNSLRAEDTAVYYCARSLARTTAMDYWGEGTLVTVSSASTKGPSVFPLAPSSKSTSGGTAALGCLVKDYFPEPVTVSWNSGALTSGVHTFPAVLQSSGLYSLSSVVTVPSSSLGTQTYICNVNHKPSNTKVDKKVEPKSCDKTHTCPPCPAPELLGGDSVFLFPPKPKDTLMISRTPEVTCVVVDVSHEDPEVKFNWYVDGVEVHNAKTKPREEQYNSTYRVVSVLTVLHQDWLNGKEYKCKMSNKALPKPIEKTISKAKGQPREPQVYTLPPSRDELTKNQVSLTCLVKGFYPSDIAVEWESNGQPENNYKTTPPVLDSDGSFFLYSKLTVDKSRWQQGNVFSCSVMHEALHNHYTQESLSLSP
light: DIQMTQSPSSLSASVGDRVTITCRASQDISSYLNWYQQKPGKAPKLLIYYTSRLHSGVPSRFSGSGSGTDFTFTISSLQPEDIATYYCQQGNTLPYTFGQGTKVEIK
In the case of B1, the Kd in assay [1] came to 0.5 µM; in assay [2], 24 µM; in assay [3], 7.2 µM; in assay [4], 67 µM; in assay [5], 0.007 µM. Further, in assay [6], the “KD(IIb) of the parent polypeptide/KD(IIb) of altered polypeptide” value (shortened to “KD(IIb)”) stood at 6.1.

B2: IL6R-BP133/IL6R-L (antibody, human IgG1)
heavy: QVQLQESGPGLVKPSETLSLTCAVSGHSISHDHAWSWVRQPPGEGLEWIGFISYSGITNYNPSLQGRVTISRDNSKNTLYLQMNSLRAEDTAVYYCARSLARTTAMDYWGEGTLVTVSSASTKGPSVFPLAPSSKSTSGGTAALGCLVKDYFPEPVTVSWNSGALTSGVHTFPAVLQSSGLYSLSSVVTVPSSSLGTQTYICNVNHKPSNTKVDKKVEPKSCDKTHTCPPCPAPDYLGGDSVFLFPPKPKDTLMISRTPEVTCVVVDVSHEDPEVKFNWYVDGVEVHNAKTKPREEQYNSTYRVVSVLTVLHQDWLNGKEYKCKVSNKALPKPIEKTISKAKGQPREPQVYTLPPSRDELTKNQVSLTCLVKGFYPSDIAVEWESNGQPENNYKTTPPVLDSDGSFFLYSKLTVDKSRWQQGNVFSCSVMHEALHNHYTQESLSLSP
light: DIQMTQSPSSLSASVGDRVTITCRASQDISSYLNWYQQKPGKAPKLLIYYTSRLHSGVPSRFSGSGSGTDFTFTISSLQPEDIATYYCQQGNTLPYTFGQGTKVEIK
As for B2, the Kd turned out to be 0.56 µM in assay [1], 26 µM in assay [2], 62 µM in assay [4] and 0.13 µM in assay [5]. In addition, the “KD(IIb)” value in assay [6] turned out to be 5.6.

B3: IL6R-BP085/IL6R-L (antibody, human IgG1)
heavy: QVQLQESGPGLVKPSETLSLTCAVSGHSISHDHAWSWVRQPPGEGLEWIGFISYSGITNYNPSLQGRVTISRDNSKNTLYLQMNSLRAEDTAVYYCARSLARTTAMDYWGEGTLVTVSSASTKGPSVFPLAPSSKSTSGGTAALGCLVKDYFPEPVTVSWNSGALTSGVHTFPAVLQSSGLYSLSSVVTVPSSSLGTQTYICNVNHKPSNTKVDKKVEPKSCDKTHTCPPCPAPELLGDDSVFLFPPKPKDTLMISRTPEVTCVVVDVSHEDPEVKFNWYVDGVEVHNAKTKPREEQYNSTYRVVSVLTVLHQDWLNGKEYKCKVSNKALPKPIEKTISKAKGQPREPQVYTLPPSRDELTKNQVSLTCLVKGFYPSDIAVEWESNGQPENNYKTTPPVLDSDGSFFLYSKLTVDKSRWQQGNVFSCSVMHEALHNHYTQESLSLSP
light: DIQMTQSPSSLSASVGDRVTITCRASQDISSYLNWYQQKPGKAPKLLIYYTSRLHSGVPSRFSGSGSGTDFTFTISSLQPEDIATYYCQQGNTLPYTFGQGTKVEIK
Consider B3, for which the Kd in assay [1] amounted to 0.32 µM; in assay [2], 24 µM; in assay [3], 4.2 µM; in assay [4], 68 µM; in assay [5], 0.29 µM. In assay [6], the “KD(IIb)” value came to 9.6.

By Kd is commonly meant the constant that tells how readily two partners part at equilibrium. Lower therefore signals tighter binding.
